US8226967B2, “Surface active proteins as excipients in solid pharmaceutical formulations” (BASF SE, priority 2008, dated 2012)

B1: PO: class I hydrophobin from Pleurotus ostreatus, accession CAA76494, recombinant from E. coli (protein, UniProt O60048 22-113, looked up)
Class I hydrophobin POH3: IPRTNPPAPTCTTGSLQCCNSVQAASNPVVGLLAGLLGIVLGPITGQVGLTCSPITVIGVGGTSCSAQTVCCNGNSFNGLIVVGCSPVNISL
B2: SC: class I hydrophobin from Schizophyllum commune, accession P16933, recombinant his-tagged from E. coli (protein, UniProt P16933 25-136, looked up)
Class I hydrophobin SC3: GGHPGTTTPPVTTTVTVTTPPSTTTIAAGGTCTTGSLSCCNQVQSASSSPVTALLGLLGIVLSDLNVLVGISCSPLTVIGVGGSGCSAQTVCCENTQFNGLINIGCTPINIL
modifications: His tag

Columns and labels:
Assay type in all cases: physicochemical
[1] = Dissolution test of Traumeel S tablets coated with alginate/hydrophobin biopolymer; details: Traumeel S tablets coated with 2% alginate containing 200 μg/ml protein, 0.1 M HCl pH 1, ambient temperature, FIG. 5A
Description: Homeopathic Traumeel®S tablets (Heel GmbH, Baden Baden, Germany) are used for coating experiments. These tablets are highly soluble and are formulated based on lactose monohydrate and magnesium stearate. […] Tablets are then immersed immediately into a solution of 0.1 M CaCl2 and dried at room temperature. For the dissolution test, tablets are immersed in 50 ml 0.1 M HCl at room temperature.
Traumeel® S (Heel) tablets are coated with hydrophobin, and resistance to acidic conditions of pH 1.0 is tested in a dissolution assay. Traumeel® S tablets are submersed in a solution of 2% alginate, containing 200 μg/ml TT, PO, TR or SC, respectively. […] After short submersion, alginate-coated tablets are allowed to polymerise in 0.1M CaCl2 and dried over night at ambient temperature.
The incubation for the dissolution test is at ambient temperature in 0.1M HCl for 10 to 120 min. Results: The coating of tablets with a biopolymer consisting of alginate with an admixture of hydrophobin yields beneficial properties regarding sustained release of a pharmaceutical composition.

[2] = Release of indicator dye from gelatine capsules coated by spraying with hydrophobin; details: for release of dye from capsules (retention of dye within the capsule): gelatine capsules sprayed with 200 μg/ml hydrophobin in water, 0.1 M HCl pH 1.0, interval of observation 2 hours, FIG. 1A
Excerpt: (§1) For setting up the leakage experiments, gelatine capsules with a volume of 0.68 cm^3 (Capsulae operculatae Nr. 0, Pharmapol GmbH, D-25578 Dageling) are filled with the indicator dye bromo phenol blue. The capsules are filled with equal weight proportions of mannitol, sodium hydrogen carbonate, trisodium citrate dehydrogenate and water-soluble bromo phenol blue and closed by joining the upper and lower part of the capsule tightly. To avoid unspecific leakage from the capsule, the joint is sealed.
The filled and sealed capsules are sprayed using a commercially available nebuliser with a solution of 200 μg/ml SC in water.
(§2) For testing the release of dye from the capsules after different surface treatments, the capsules are submerged in 50 ml 0.1 M HCl corresponding to a pH of 1.0 in order to mimic the acidic environment in the stomach. In a second setup, 0.4 U/ml pepsin are added to the 0.1 M HCl to test for resistance to a typical enzyme in the stomach juice. Quantification of the release is accomplished by computer aided optical evaluation of different areas of the solution in the immersion bath leading to arbitrary luminance units.
The release of dye from capsules coated by spraying with hydrophobins or as a control with water, respectively, is assayed in an acidic environment to mimic stomach conditions. The amount of dye contained in the immersion bath is measured by optical evaluation and given as arbitrary luminance units.

[3] = Release of indicator dye from gelatine capsules coated with alginate/hydrophobin biopolymer
Excerpt: as §1
Filled and sealed capsules were submerged in a solution of 2% w/v alginate (E400) containing 200 μg/ml hydrophobin for 10 seconds. […] Crosslinking of alginate is accomplished by subsequent submerging in 0.1 M CaCl2. Subsequently, the capsules are dried at room temperature.
as §2
Hydrophobin SC is prepared and the gelatine capsules are filled with indicator dye as described above. Filled and sealed capsules are submerged in a solution of 2% w/v alginate (E400) containing 200 μg/ml hydrophobin.
Three hydrophobins are used to test if the modulation of the release kinetics of alginate coated gelatine capsules can be achieved with different hydrophobins. SC is prepared as described further above. Two additional hydrophobins are recombinantly produced in a similar procedure as described for SC. TT is from Talaromyces thermophilus and PO from Pleurotus ostreatus. Capsules are filled with indicator dye, sealed and immersed in a mixture of alginate and hydrophobin SC, TT or PO, respectively, as described in examples 1 and 2. As a control, an admixture of alginate and BSA is used. […]

[4] = Dissolution of gelatine films with or without hydrophobin; details: gelatine with 200 μg/ml hydrophobin
Description: Gelatine (stained red, purchased from RUF, Quakenbrück, Germany) is solubilized in water or a SC-solution (final concentration 200 μg/ml). 500 μl solubilized gelatine is added per well of a 6-well macroplate. Gelatine is dried over night at 50° C. Then 500 μl H2O, 0.1 N HCl or 0.1 N HCl with 0.4 U/ml pepsin, respectively, are added to the wells.

| Molecule | resistance to dissolution of the coated tablet (integrity of tablets) [1] | resistance to dissolution of the coated tablet (integrity of tablets) ([1]; listed as SC3) | release of dye from capsules (retention of dye within the capsule) [2] | release of dye from capsules (retention of dye within the capsule) ([2]; listed as SC3) | release of dye from capsules ([2]; sprayed gelatine capsules, 0.1 M HCl pH 1.0 with 0.4 U/ml pepsin, FIG. 1B) | resistance of coated capsules / onset of dye release, acidic environment ([3]; alginate with 200 μg/ml protein, pH 1.0, FIG. 3A) | release characteristics of capsules (dye release) ([3]; alginate-coated capsules, 200 μg/ml protein, 0.1 M HCl pH 1.0 with 0.4 U/ml pepsin, FIG. 2B) | resistance of capsules to acidic conditions (dye release) ([3]; capsules submerged in 2% w/v alginate containing 200 μg/ml protein, pH 1.0, FIG. 2A) | dissolution of gelatine ([4]; dried, H2O, 0.1 N HCl or 0.1 N HCl with 0.4 U/ml pepsin, FIG. 5B) | dissolution of gelatine in an environment mimicking gastric juices ([4]; 0.1 N HCl, with or without 0.4 U/ml pepsin) | dissolution of the biopolymer gelatine in water ([4]; water) |
| --- | --- | --- | --- | --- | --- | --- | --- | --- | --- | --- | --- |
| B1 | superior to the class II hydrophobin TR |  |  |  |  |  |  |  |  |  |  |
| B2 | superior to the class II hydrophobin TR | delays the dissolution of the tablets significantly | prolonged retention of dye within the capsule | resistant to an acidic environment | same advantageous release characteristics | increased resistance to stomach juices | essentially the same | comparable to that of gelatine capsules sprayed with hydrophobin | inhibits the dissolution of gelatine | reduced | strongly hampered |
